Consider six molecules from article PMC6506529, “Structural Insights into Catalytic Versatility of the Flavin-dependent Hydroxylase (HpaB) from Escherichia coli” (Scientific Reports, 2019).

Broadly, the Km is the concentration of substrate that gives half-maximal velocity. The kcat is the maximal rate divided by the concentration of active sites. As usually defined, the kcat/Km is the turnover number divided by the Michaelis constant.

What all share (settings): apparent, 10 μM FAD, 1 mM NADH, 500 nM HpaC, 20 mM KPi pH 7.0, 30 °C
Series [1] has as its system O=C(O)/C=C/c1ccc(O)cc1. Briefly: HPLC of product and substrate; Michaelis-Menten fit. Type of series: biochemical, Escherichia coli. The text has this:
(§1) HPLC of product and substrate; Michaelis-Menten fit on EcHpaB

Series [2] has as its system O=C(O)/C=C/c1ccc(O)cc1. Briefly: purified protein. The series is classed as biochemical, Escherichia coli.
Text: as §1

Series [3] concerns O=c1ccc2ccc(O)cc2o1. Nature of the series: purified protein.
The subject of series [4] is O=C(O)/C=C/c1ccc(O)cc1. Briefly: purified protein. The series is classed as biochemical, Escherichia coli. The source holds these as a separate data set.
Substrate in series [5]: O=C1C[C@@H](c2ccc(O)cc2)Oc2cc(O)cc(O)c21
Briefly: purified protein.

Substrate in series [6]: O=c1ccc2ccc(O)cc2o1
Briefly: purified protein. This is another data set of the same source.

Substrate in series [7]: Oc1ccc(/C=C/c2cc(O)cc(O)c2)cc1
Nature of the series: purified protein.

Substrate in series [8]: O=C(O)/C=C/c1ccc(O)cc1
Nature of the series: HPLC of product and substrate; Michaelis-Menten fit. The series is classed as biochemical, Escherichia coli. This is another data set of the same source.

On to “EcHpaB (Escherichia coli; A211D/E216M/F208A/G207M/G209M/G215A/M214G/N217V/Q212G/S210V/V213S)”, for which, in series [1], the Km turned out to be 235.3 ± 52.5 µM, the kcat stood at 0.375 ± 0.0217 s⁻¹ and the kcat/Km was determined as 1560 M⁻¹ s⁻¹.

Consider “EcHpaB (Escherichia coli; A211D/E216M/F208A/G207M/G209M/G215A/N217V/S210V)”, for which, in series [2], the Km came out at 210.8 ± 85.3 µM, the kcat was found to be 0.512 ± 0.0617 s⁻¹ and the kcat/Km is 2400 M⁻¹ s⁻¹.

As for “EcHpaB (Escherichia coli; A211D/E216S/F208S/M214S/N217D/Q212L/V213G)”, in series [3], the Km amounted to 176.9 ± 35.9 µM, the kcat was 0.348 s⁻¹ and the kcat/Km stood at 2000 M⁻¹ s⁻¹. Moreover, in series [4], the Km amounted to 132.1 ± 29.1 µM, the kcat was determined as 0.365 ± 0.0167 s⁻¹ and the specificity constant (kcat/Km) stood at 2800 M⁻¹ s⁻¹.

For “EcHpaB (Escherichia coli; A211D/F208A/G207M/G209M/S210V)”, in series [4], the Km was 387.9 ± 32.7 µM, the kcat was 0.183 ± 0.00667 s⁻¹ and the catalytic efficiency (kcat/Km) is 470 M⁻¹ s⁻¹.

As to “EcHpaB (Escherichia coli; E216M/G215A/N217V)”, in series [1], the Michaelis-Menten constant (Km) was 235.6 ± 40.2 µM, the kcat turned out to be 0.497 ± 0.0217 s⁻¹ and the kcat/Km amounted to 2100 M⁻¹ s⁻¹.

B1: EcHpaB (Escherichia coli) (protein)
chain: MKPEDFRASTQRPFTGEEYLKSLQDGREIYIYGERVKDVTTHPAFRNAAASVAQLYDALHKPEMQDSLCWNTDTGSGGYTHKFFRVAKSADDLRHERDAIAEWSRLSYGWMGRTPDYKAAFGCALGGTPGFYGQFEQNARNWYTRIQETGLYFNHAIVNPPIDRHLPTDKVKDVYIKLEKETDAGIIVSGAKVVATNSALTHYNMIGFGSAQVMGENPDFALMFVAPMDADGVKLISRASYEMVAGATGSPYDYPLSSRFDENDAILVMDNVLIPWENVLLYRDFDRCRRWTMEGGFARMYPLQACVRLAVKLDFITALLKKSLECTGTLEFRGVQADLGEVVAWRNTFWALSDSMCSEATPWVNGAYLPDHAALQTYRVLAPMAYAKIKNIIERNVTSGLIYLPSSARDLNNPQIDQYLAKYVRGSNGMDHVQRIKILKLMWDAIGSEFGGRHELYEINYSGSQDEIRLQCLRQAQSSGNMDKMMAMVDRCLSEYDQNGWTVPHLHNNDDINMLDKLLK
notes: (α2)2 tetramer; expressed in E. coli BW25113 (F') from pZE12-luc, purified; assayed with separate purified HpaC reductase
B1: the Km was 349.8 ± 77.6 µM in series [5], 217.0 ± 60.6 µM in series [6], 174.3 ± 17.9 µM in series [7] and 137.6 ± 21.0 µM in series [8]. In addition, the kcat in series [5] was determined as 0.15 s⁻¹; in series [6], 0.418 s⁻¹; in series [7], 0.437 s⁻¹; in series [8] it was 0.387 ± 0.0117 s⁻¹. Further, the specificity constant (kcat/Km) in series [5] was 400 M⁻¹ s⁻¹; in series [6] it was 1900 M⁻¹ s⁻¹; in series [7], 2500 M⁻¹ s⁻¹; in series [8] it was 2800 M⁻¹ s⁻¹.
